One may read the Kd as the equilibrium constant for the complex coming apart.

Drawing on US20220089640A1 (published 2022), this text covers Kd for two molecules.

Numbered stars: 1 amine (or outer) side, 2 acyl side, 3 side chain; on linkers, the order of the positions; unused ones are H or OH. Bridge positions count the residues as written; N and C are the ends. Square brackets hold non-standard residues; d marks the D form. Tyr(OMe) = COc1ccc(C[C@H](N[*:1])C(=O)[*:2])cc1; Trp(5-F) = N[C@@H](Cc1c[nH]c2ccc(F)cc12)C(=O)O; mXylylene = c1cc(C[*:1])cc(C[*:2])c1; Mpa = O=C(O)CCS

Assay [1] deals with T1, biotinylated PCSK9 (UniProt Q8NBP7 31-692, limits assumed, biotinylated (site not stated)).
T1 construct: also called europium-labeled PCSK9
Kind of assay: given in the description of the Alexa FRET Standard assay; method not stated.

The target of assay [2] is T1, biotinylated PCSK9. Kind of assay: given in the description of the Alexa FRET Plus assay; method not stated.

T1 sequence (Q8NBP7 31-692 limits assumed): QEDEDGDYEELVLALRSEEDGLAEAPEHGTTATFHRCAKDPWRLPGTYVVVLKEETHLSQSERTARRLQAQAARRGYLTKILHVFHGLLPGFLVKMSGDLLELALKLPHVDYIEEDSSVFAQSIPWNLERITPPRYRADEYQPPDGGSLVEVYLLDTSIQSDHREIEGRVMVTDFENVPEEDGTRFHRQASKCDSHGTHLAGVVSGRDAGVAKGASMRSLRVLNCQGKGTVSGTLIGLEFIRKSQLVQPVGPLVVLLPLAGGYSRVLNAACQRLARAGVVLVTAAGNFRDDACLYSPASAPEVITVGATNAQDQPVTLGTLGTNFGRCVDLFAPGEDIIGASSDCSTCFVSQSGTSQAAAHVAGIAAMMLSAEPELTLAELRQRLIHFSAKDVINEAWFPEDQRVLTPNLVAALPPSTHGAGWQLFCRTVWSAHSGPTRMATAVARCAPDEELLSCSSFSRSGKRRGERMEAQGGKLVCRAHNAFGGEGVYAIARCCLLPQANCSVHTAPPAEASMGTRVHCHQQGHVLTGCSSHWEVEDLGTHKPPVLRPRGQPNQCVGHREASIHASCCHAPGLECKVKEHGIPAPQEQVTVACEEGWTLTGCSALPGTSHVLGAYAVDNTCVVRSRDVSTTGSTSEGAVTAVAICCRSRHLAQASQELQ

B1: Reagent A (peptide)
peptide: [Mpa]K(ALEXAFLUOR 647)G[Trp(5-F)][Trp(5-F)]DHY[2‑methylproline]C-NH2
modifications: linker N-10 via mXylylene
notes: also called AlexaFluor647 (AF) tagged cyclic peptide; AF cyclic peptide
B1 came in with a Kd in assay [1] of 83 nM.

B2: Reagent B (peptide)
peptide: [Mpa]K(ALEXAFLUOR 647)[dA][Trp(5-F)][Trp(5-F)]DH[Tyr(OMe)][2‑methylproline]C-NH2
modifications: linker N-10 via mXylylene
notes: as for B1
As to B2, the Kd in assay [2] is 35 nM.
